This is an account of results in publication PMC8428749.

For this assay, the target named is human C4b binding protein (C4BP) (human) (UniProt P04003). Kind of assay: BLI; Octet RED96; purified C4BP immobilised on amine-reactive (AR2G) sensor; P5 loop peptides 1.25-50 µM in PBS; 30°C; 1:1 binding fit.

By Kd is commonly meant the free concentration of one partner at which half of the binding sites on the other are occupied at equilibrium, for simple one-to-one binding. A low value points to tighter binding.

Chain of UniProt P04003 (P04003 49-597, chain 1 of 2): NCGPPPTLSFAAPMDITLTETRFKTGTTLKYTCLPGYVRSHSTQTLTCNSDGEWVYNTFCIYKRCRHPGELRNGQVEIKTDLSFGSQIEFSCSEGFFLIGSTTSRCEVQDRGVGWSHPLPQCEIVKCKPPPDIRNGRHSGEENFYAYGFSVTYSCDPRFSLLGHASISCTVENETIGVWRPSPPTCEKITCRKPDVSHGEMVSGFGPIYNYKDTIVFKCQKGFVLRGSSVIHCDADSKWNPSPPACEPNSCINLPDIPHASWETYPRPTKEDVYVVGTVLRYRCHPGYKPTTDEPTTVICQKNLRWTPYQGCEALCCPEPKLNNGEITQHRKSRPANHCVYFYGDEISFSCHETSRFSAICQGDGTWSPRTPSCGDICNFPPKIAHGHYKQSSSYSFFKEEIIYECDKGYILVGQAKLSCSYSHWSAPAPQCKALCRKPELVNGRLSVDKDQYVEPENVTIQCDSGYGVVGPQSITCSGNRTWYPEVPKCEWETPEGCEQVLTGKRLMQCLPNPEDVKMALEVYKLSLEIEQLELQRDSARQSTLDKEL
Chain of UniProt P04003 (P20851 18-252, chain 2 of 2, further chain): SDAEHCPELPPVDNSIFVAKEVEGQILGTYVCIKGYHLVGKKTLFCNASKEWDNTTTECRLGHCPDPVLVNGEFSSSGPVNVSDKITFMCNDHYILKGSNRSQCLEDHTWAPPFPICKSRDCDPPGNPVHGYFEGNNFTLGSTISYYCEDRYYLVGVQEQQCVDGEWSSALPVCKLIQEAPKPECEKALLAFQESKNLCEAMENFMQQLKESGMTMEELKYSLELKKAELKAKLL

The substance “synthetic peptide of outer surface loop 2 of P5 from NTHi 3655” returned a Kd of 10 µM. This counts as double-digit micromolar.
“synthetic peptide of outer surface loop 2 of P5 from NTHi KR271” displayed a Kd of 73 µM.
